{
  "source": "patent US20180073013A1",
  "about": "(published 2018)",
  "experiment_in_all_cases": "cytokine release",
  "key": {"[1]": {"biological_target": "T1, HPV16 oncoprotein E5 peptide on HLA-B*15:01 (human)", "T1 peptide": "WITAASAF"}, "[2]": {"biological_target": "T2, HPV16 oncoprotein E5 peptide on HLA-B*15:01 (human)", "T2 peptide": "ASAFRCFIVY"}, "[3]": {"biological_target": "T3, HPV16 oncoprotein E5 peptide on HLA-B*15:01 (human)", "T3 peptide": "AASAFRCFIVY"}, "[4]": {"biological_target": "T4, HPV16 oncoprotein E5 peptide on HLA-B*15:01 (human)", "T4 peptide": "TAASAFRCFIVY"}, "[5]": {"biological_target": "T5, HPV16 oncoprotein E5 peptide on HLA-B*15:01 (human)", "T5 peptide": "ITAASAFRCFIVY"}, "[6]": {"biological_target": "T6, HPV16 oncoprotein E5 peptide on HLA-B*15:01 (human)", "T6 peptide": "WITAASAFRCFIVY"}, "[7]": {"biological_target": "T7, HPV16 oncoprotein E5 peptide on HLA-B*15:01 (human)", "T7 peptide": "LLWITAASAF"}, "[8]": {"biological_target": "T8, HPV16 oncoprotein E5 peptide on HLA-B*15:01 (human)", "T8 peptide": "LLLWITAASAF"}},
  "data": [
    {"binder": "HPV16 E5-specific TCR (TRAV17 + TRBV6-5) (TCR, V domains shown) Valpha: SQQGEEDPQALSIQEGENATMNCSYKTSINNLQWYRQNSGRGLVHLILIRSNEREKHSGRLRVTLDTSKKSSSLLITASRAADTASYFCAESEYGNKLVFGAGTILRVKS Vbeta: NAGVTQTPKFQVLKTGQSMTLQCAQDMNHEYMSWYRQDPGMGLRLIHYSVGAGITDQGEVPNGYNVSRSTTEDFPLRLLSAAPSQTSVYFCASSYRQQETQYFGPGTRLLVL", "values": [
      {"measurement": "binding result", "setting": "[1]", "result": "no recognition"},
      {"measurement": "binding result", "setting": "[2]", "result": "recognises"},
      {"measurement": "binding result", "setting": "[3]", "result": "recognises"},
      {"measurement": "binding result", "setting": "[4]", "result": "recognises"},
      {"measurement": "binding result", "setting": "[5]", "result": "recognises"},
      {"measurement": "binding result", "setting": "[6]", "result": "recognises"},
      {"measurement": "binding result", "setting": "[7]", "result": "no recognition"},
      {"measurement": "binding result", "setting": "[8]", "result": "no recognition"}
    ]}
  ]
}
